Residue numbers refer to the chain shown, from its start. Names may count otherwise. No end group written: not given here. *: point of attachment. FITC = O=C1OC2(c3ccc(O)cc3Oc3cc(O)ccc32)c2ccc(NC(=S)*)cc21
What was measured:
[1] = biological target: T1, AA peptide; experiment: BLI (Octet), peptide on sensor, purified protein in solution
T1 construct: The peptide was coated on the Octet sensor; also called peptide with N-terminal alanine and penultimate alanine
Text: (§1) In the high-throughput assay, Octet sensors are coated with the peptide of interest and dipped in buffer containing the purified protein. An approximation of relative binding can be obtained by comparing the response after 200 seconds for each protein. Each protein has approximately the same molecular mass and is used at the same concentration, so ranking the proteins by response level in this assay gives an approximation of which proteins have improved binding. Studying the on and off-rate can also give insight into the mechanism of binding.

[2] = biological target: T2, VA peptide; experiment: as above
T2 construct: The peptide was coated on the Octet sensor; also called peptide with N-terminal valine and penultimate alanine
Text: as §1

[3] = biological target: T3, LA peptide; experiment: as above
T3 construct: The peptide was coated on the Octet sensor; also called peptide with N-terminal leucine and penultimate alanine
Text: as §1

[4] = biological target: T4, RA peptide (XAKLDEESILKQK-FITC, X = R); experiment: fluorescence polarization titration, 20 C
T4 construct: also called peptide with N-terminal arginine
T4 peptide: RAKLDEESILKQK(FITC)
Procedure: (§2) Binding affinity was measured by polarization using a labeled peptide. The polarization response and total intensity measurements were carried out at 20° C. on a microplate fluorometer with 480 nm excitation and 530 nm emission. […] Multiple analyses were performed at increasing recognizer concentration at a fixed concentration of a target peptide to obtain a titration curve. An equilibrium polarization response at each concentration was plotted and fit to calculate the KD.
(§3) Fluorescence polarization assays were performed with all candidates, and single point binding responses were measured at a fixed concentration of the binders (FIG. 13A). […] We carried out multiple polarization binding titration analysis at increasing concentration of binder protein, and the Kds were determined from the titration curves (FIG. 13B).

[5] = biological target: T5, HA peptide (XAKLDEESILKQK-FITC, X = H); experiment: fluorescence polarization titration, 20 C
T5 construct: also called peptide with N-terminal histidine
T5 peptide: HAKLDEESILKQK(FITC)
Procedure: as §2, §3

[6] = biological target: T6, RA peptide (Octet assay of PS621 variants); experiment: Octet (BLI), 30 C
T6 construct: X… with X = R
Text: (§4) Peptides of the sequence RXKLDEESILKQK (SEQ ID NO: 1076) were also used to evaluate the penultimate residue effect.

[7] = biological target: T7, RL peptide (Octet assay of PS621 variants); experiment: Octet (BLI), 30 C
T7 construct: RXKLDEESILKQK with X = L
T7 peptide: RLKLDEESILKQK
Text: as §4

[8] = biological target: T8, HA peptide (Octet assay of PS621 variants); experiment: Octet (BLI), 30 C
T8 construct: XAKLDEESILKQK with X = H
T8 peptide: HAKLDEESILKQK

[9] = biological target: T9, KA peptide (Octet assay of PS621 variants); experiment: Octet (BLI), 30 C
T9 construct: XAKLDEESILKQK with X = K
T9 peptide: KAKLDEESILKQK

B1: PS557 (other)
chain: MPTAASATESAIEDTPAPARPEVDGRTKPKRQPRYHVVLWNDDDHTYQYVVVMLQSLFGHPPERGYRLAKEVDTQGRVIVLTTTREHAELKRDQIHAFGYDRLLARSKGSMKASIEAEE
notes: Natural parent ClpS protein, expressed in E. coli and purified; also called WT; wild-type protein
B1 was tested, and the “Octet response after 200 sec association” value [1] was 0.01 nm, the “Octet response after 200 sec association” value [2] was 5.9 nm and the “Octet response after 200 sec association” value [3] was 9.8 nm.

B2: PS847 (designed binder)
chain: B1 chain with N41D, Q55R, V72M
notes: Variant of PS557
With B2 the “Octet response after 200 sec association” value [1] was 0.288 nm, the “Octet response after 200 sec association” value [2] was 6.68 nm and the “Octet response after 200 sec association” value [3] was 9.92 nm.

B3: PS852 (designed binder)
chain: B1 chain with R31H, N41D, Q55R, V72M
notes: Variant of PS557
For B3, the “Octet response after 200 sec association” value [1] was 1.7 nm, the “Octet response after 200 sec association” value [2] was 8.3 nm and the “Octet response after 200 sec association” value [3] was 9.7 nm.

B4: PS828 (designed binder)
chain: B1 chain with N41D, P62R, Q75L
notes: Variant of PS557
For B4, the “Octet response after 200 sec association” value [1] was 0.469 nm, the “Octet response after 200 sec association” value [2] was 3.24 nm and the “Octet response after 200 sec association” value [3] was 7.75 nm.

B5: PS797 (designed binder)
chain: B1 chain with N41D, V72M, Q75L
notes: Variant of PS557; also called N41D, V72M, Q75L
In the case of B5, the “Octet response after 200 sec association” value [1] is reported as 3.2 nm, the “Octet response after 200 sec association” value [2] is reported as 11.2 nm and the “Octet response after 200 sec association” value [3] is reported as 12 nm.

B6: PS801/PS814 (designed binder)
chain: B1 chain with E63K
notes: also called E63K
With B6 the “Octet response after 200 sec association” value [1] was 0.0017 nm, the “Octet response after 200 sec association” value [2] was 5.73 nm and the “Octet response after 200 sec association” value [3] was 10.7 nm.

B7: PS831 (designed binder)
chain: B1 chain with P62R, E63K, V72M, Q75L
notes: Variant of PS557
With B7 the “Octet response after 200 sec association” value [1] was 1.4 nm, the “Octet response after 200 sec association” value [2] was 11 nm and the “Octet response after 200 sec association” value [3] was 12.2 nm.

B8: PS796 (designed binder)
chain: B1 chain with N41D, V72M
notes: also called N41D, V72M
B8 was tested, and the “Octet response after 200 sec association” value [1] was 3.5 nm, the “Octet response after 200 sec association” value [2] was 11.3 nm and the “Octet response after 200 sec association” value [3] was 11.9 nm.

B9: PS838 (designed binder)
chain: B1 chain with N41D, P62R, V72M
notes: Variant of PS557; also called V72M, N41D, P62R
For B9, the “Octet response after 200 sec association” value [1] was 3 nm, the “Octet response after 200 sec association” value [2] was 11.6 nm and the “Octet response after 200 sec association” value [3] was 13.4 nm.

B10: PS808 (designed binder)
chain: B1 chain with Q55R
notes: Variant of PS557; also called Q55R
With B10 the “Octet response after 200 sec association” value [1] was 0.0027 nm, the “Octet response after 200 sec association” value [2] was 5.71 nm and the “Octet response after 200 sec association” value [3] was 10.4 nm.

B11: PS824 (designed binder)
chain: B1 chain with I12F, N41D, Q55R, V72M
notes: Variant of PS557
With B11 the “Octet response after 200 sec association” value [1] was 3.9 nm, the “Octet response after 200 sec association” value [2] was 13.3 nm and the “Octet response after 200 sec association” value [3] was 13.8 nm.

B12: PS830 (designed binder)
chain: B1 chain with N41D, P62R, E63K, V72M, Q75L
notes: Variant of PS557
In the case of B12, the “Octet response after 200 sec association” value [1] is reported as 0.215 nm, the “Octet response after 200 sec association” value [2] is reported as 6.64 nm and the “Octet response after 200 sec association” value [3] is reported as 8.54 nm.

B13: PS798 (designed binder)
chain: B1 chain with V72M, Q75L
notes: Variant of PS557; also called V72M, Q75L
In the case of B13, the “Octet response after 200 sec association” value [1] is reported as 3.8 nm, the “Octet response after 200 sec association” value [2] is reported as 12.9 nm and the “Octet response after 200 sec association” value [3] is reported as 13.9 nm.

B14: PS819 (designed binder)
chain: B1 chain with N41D, E63K, V72M
notes: Variant of PS557; also called V72M, N41D, E63K
For B14, the “Octet response after 200 sec association” value [1] was 0.519 nm, the “Octet response after 200 sec association” value [2] was 7.42 nm and the “Octet response after 200 sec association” value [3] was 11.1 nm.

B15: PS809 (designed binder)
chain: B1 chain with V72M
notes: Variant of PS557; also called V72M
For B15, the “Octet response after 200 sec association” value [1] was 0.0226 nm, the “Octet response after 200 sec association” value [2] was 7.77 nm and the “Octet response after 200 sec association” value [3] was 10.8 nm.

B16: PS1104 (designed binder)
chain: MHSKFSHAGRICGAKFKVGEPIYRCKECSFDDTCVLCVNCFNPKDHRGHHVYTTICTEFNNGICDCGDKEAWNHTLFCKAEEG
notes: PS621 variant
B16 gave a Kd [4] of 260 nM and a Kd [5] of 2850 nM.

B17: PS1121 (designed binder)
chain: B16 chain with R47K
notes: Variant of PS621
B17 was tested, and the Octet response [6] was 9.5, the Octet response [7] was 10.6 and the Octet response [8] was 2.2. It also gave an Octet response [9] of 5.4.

B18: PS1103 (designed binder)
chain: B16 chain with D32Y, R47T
notes: Variant of PS621
B18 showed an Octet response [6] of 6.2, an Octet response [7] of 8.4 and an Octet response [9] of 2.9. The Kd [4] was 787 nM.

B19: PS1110 (designed binder)
chain: B16 chain with R47T, I63E
notes: Variant of PS621
In the case of B19, the Octet response [6] is reported as 7, the Octet response [7] is reported as 9.8 and the Octet response [8] is reported as 2.4. It also gave an Octet response [9] of 6.6.

B20: PS1109 (designed binder)
chain: B16 chain with R47T, N61K
notes: Variant of PS621
B20 was tested, and the Octet response [6] was 8.2, the Octet response [7] was 10.5 and the Octet response [8] was 0.6. The Octet response [9] was 4.7.

B21: PS1106 (designed binder)
chain: B16 chain with R47T, T53V
notes: PS621 variant
In the case of B21, the Kd [4] is reported as 165 nM and the Kd [5] is reported as 3440 nM.

B22: PS1115 (designed binder)
chain: B16 chain with F59R, T75E
notes: PS621 variant
In the case of B22, the Kd [4] is reported as 152 nM and the Kd [5] is reported as 1920 nM.

B23: PS1114 (designed binder)
chain: B16 chain with F59R
notes: Variant of PS621
B23 showed an Octet response [6] of 9.2, an Octet response [7] of 9.7 and an Octet response [8] of 1.2. It also gave an Octet response [9] of 5.3.

B24: PS1113 (designed binder)
chain: B16 chain with R47T, H74K
notes: Variant of PS621
For B24, the Octet response [6] was 7.7, the Octet response [7] was 9.3 and the Octet response [8] was 0.2. The Octet response [9] was 3.8.

B25: PS1114 (designed binder)
chain: B16 chain with F59R
notes: PS621 variant
Work on B25 yielded a Kd [4] of 180 nM and a Kd [5] of 2660 nM.

B26: PS1117 (designed binder)
chain: B16 chain with R47L
notes: Variant of PS621
Work on B26 yielded an Octet response [6] of 8.6, an Octet response [7] of 9 and an Octet response [8] of 0.5. The Octet response [9] was 3.5.

B27: PS1108 (designed binder)
chain: B16 chain with R47T, F59R
notes: Variant of PS621
With B27 the Octet response [6] was 8.2, the Octet response [7] was 10.3 and the Octet response [8] was 1.2. It also gave an Octet response [9] of 5.

B28: PS1116 (designed binder)
chain: B16 chain with R47T, G48Y
notes: Variant of PS621
B28 showed an Octet response [6] of 7.1, an Octet response [7] of 8.5 and an Octet response [9] of 1.2.

B29: PS1121 (designed binder)
chain: B16 chain with R47K
notes: PS621 variant
Binder B29 has a Kd [4] of 259 nM and a Kd [5] of 3500 nM.

B30: PS1111 (designed binder)
chain: B16 chain with R47T, E70S
notes: Variant of PS621
B30 was tested, and the Octet response [6] was 7.9, the Octet response [7] was 10 and the Octet response [9] was 2.7.

B31: PS1122 (designed binder)
chain: B16 chain with R47L, I63E, E70T
notes: Variant of PS621 (T47L, I63E, E70T)
Binder B31 has an Octet response [6] of 9.9, an Octet response [7] of 11.2 and an Octet response [8] of 1.3. For the same binder, the Octet response [9] was 4.6.

B32: PS1112 (designed binder)
chain: B16 chain with R47T, E70T
notes: Variant of PS621
In the case of B32, the Octet response [6] is reported as 8.6, the Octet response [7] is reported as 9.9 and the Octet response [9] is reported as 2.3.

B33: PS1106 (designed binder)
chain: B16 chain with R47T, T53V
notes: Variant of PS621
B33 showed an Octet response [6] of 7.6, an Octet response [7] of 9 and an Octet response [8] of 0.6. For the same binder, the Octet response [9] was 4.7.

— US20240272170A1 (QUANTUM SI, published 2024)
